The record followed here is patent US20080219971A1 (VACCINEX, published 2008).

Where a chain is given by its changes, count along the chain named. Names and notes keep the numbering of the source.

Test [1] deals with T1, Human CD100 (human, UniProt Q92854 22-734, limits assumed).
T1 construct: also called SEMA4D; Hu CD100
T1 sequence (looked up): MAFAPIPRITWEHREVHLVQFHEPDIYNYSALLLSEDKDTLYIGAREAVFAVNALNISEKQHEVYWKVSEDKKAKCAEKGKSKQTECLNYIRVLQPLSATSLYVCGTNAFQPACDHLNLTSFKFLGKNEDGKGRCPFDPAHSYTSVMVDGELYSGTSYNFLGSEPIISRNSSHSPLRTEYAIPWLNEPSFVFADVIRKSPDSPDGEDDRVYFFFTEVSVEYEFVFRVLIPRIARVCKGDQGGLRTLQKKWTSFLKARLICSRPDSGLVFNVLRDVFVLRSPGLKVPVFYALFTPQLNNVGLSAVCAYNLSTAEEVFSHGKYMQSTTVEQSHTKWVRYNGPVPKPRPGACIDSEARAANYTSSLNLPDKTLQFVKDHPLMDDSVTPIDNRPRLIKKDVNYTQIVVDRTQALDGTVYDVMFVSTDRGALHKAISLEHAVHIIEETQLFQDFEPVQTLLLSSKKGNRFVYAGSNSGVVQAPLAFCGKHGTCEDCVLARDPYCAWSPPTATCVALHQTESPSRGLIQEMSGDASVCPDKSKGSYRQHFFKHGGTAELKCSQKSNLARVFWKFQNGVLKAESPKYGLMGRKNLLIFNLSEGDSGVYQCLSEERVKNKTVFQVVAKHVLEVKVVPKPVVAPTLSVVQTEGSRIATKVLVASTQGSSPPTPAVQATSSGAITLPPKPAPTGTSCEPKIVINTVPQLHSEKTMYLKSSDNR
Put plainly: ELISA method of Friguet et al.; column head 'Affinity (nM) IC50 ELISA'; antigen not named. As for the experimental part:
Antibody affinity was measured according to the ELISA method described in Friguet et al. (1985) J Immunol Methods 77(2):305-19.
A general note: In an ELISA, binding on a coated surface is turned into a signal by an enzyme label.

For test [2], the target named is T2, human CD100-Fc (human, UniProt Q92854 22-734, limits assumed).
T2 construct: also called CD100-Fc antigen
T2 sequence (looked up): T1 sequence (looked up)
The experiment in a line: competition ELISA on CD100-Fc: BD16 titrated against 5 ng/ml MAb 657, bound MAb 657 detected with anti-human Kappa HRP. As for the experimental part:
(§1) Competition ELISA assays were then performed. The ELISA plate was coated with CD100-Fc antigen, and BD16 or BB18 were allowed to bind individually to CD100. […] The cells were washed and antibody activity detected. Bound chimeric or human MAb was detected using anti-human Kappa HRP.

Test [3] has as its target T2, human CD100-Fc. Put plainly: competition ELISA on CD100-Fc: BD16 titrated against 5 ng/ml MAb 301, bound MAb 301 detected with anti-human Kappa HRP. How it is done: as §1
Another test addresses T3, streptavidin (UniProt P22629 37-163, limits assumed).
T3 construct: Negative control antigen
The experiment in a line: ELISA.

The next test addresses T4, human serum albumin (human, UniProt P02768 25-609).
T4 construct: Negative control antigen
Put plainly: ELISA.

The target in a further test is T5, BSA (UniProt P02769 25-607).
T5 construct: Negative control antigen
T5 sequence (P02769 25-607 limits assumed): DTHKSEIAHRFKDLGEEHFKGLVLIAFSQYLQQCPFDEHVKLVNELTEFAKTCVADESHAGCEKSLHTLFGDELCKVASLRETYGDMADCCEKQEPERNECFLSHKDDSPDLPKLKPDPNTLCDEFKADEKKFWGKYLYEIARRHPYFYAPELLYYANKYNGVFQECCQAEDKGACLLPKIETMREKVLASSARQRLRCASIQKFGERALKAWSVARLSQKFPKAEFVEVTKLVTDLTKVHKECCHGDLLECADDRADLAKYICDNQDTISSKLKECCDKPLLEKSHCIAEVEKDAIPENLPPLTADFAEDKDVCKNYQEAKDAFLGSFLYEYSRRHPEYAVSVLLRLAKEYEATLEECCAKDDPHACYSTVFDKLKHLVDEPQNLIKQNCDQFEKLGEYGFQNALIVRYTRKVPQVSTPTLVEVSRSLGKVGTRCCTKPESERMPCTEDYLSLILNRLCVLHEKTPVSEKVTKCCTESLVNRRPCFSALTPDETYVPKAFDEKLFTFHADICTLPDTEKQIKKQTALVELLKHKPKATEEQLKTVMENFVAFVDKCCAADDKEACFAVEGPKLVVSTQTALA
The experiment in a line: ELISA.

Test [4] has as its target T2, human CD100-Fc. Put plainly: ELISA on CD100-Fc antigen.
Test [5] has as its target T6, huErb2-Fc (human, UniProt P04626 23-652).
T6 construct: Negative control antigen; also called huErb2-Fc antigen
The experiment in a line: ELISA on huErb2-Fc antigen (Neg Ctrl).

For test [6], the target named is T6, huErb2-Fc. Put plainly: ELISA.
Test [7] has as its target T1, Human CD100. Put plainly: affinity testing, method and unit not printed in Example 10 (nM as in Table 3).
Test [8] has as its target T1, Human CD100. The experiment in a line: affinity testing, method and unit not printed in Example 10 (nM as in Table 3); mutant value, before the parentheses.
The target in test [9] is T1, Human CD100. Described as above. The source holds these as a separate data set.

T4 sequence (P02768 25-609 limits assumed): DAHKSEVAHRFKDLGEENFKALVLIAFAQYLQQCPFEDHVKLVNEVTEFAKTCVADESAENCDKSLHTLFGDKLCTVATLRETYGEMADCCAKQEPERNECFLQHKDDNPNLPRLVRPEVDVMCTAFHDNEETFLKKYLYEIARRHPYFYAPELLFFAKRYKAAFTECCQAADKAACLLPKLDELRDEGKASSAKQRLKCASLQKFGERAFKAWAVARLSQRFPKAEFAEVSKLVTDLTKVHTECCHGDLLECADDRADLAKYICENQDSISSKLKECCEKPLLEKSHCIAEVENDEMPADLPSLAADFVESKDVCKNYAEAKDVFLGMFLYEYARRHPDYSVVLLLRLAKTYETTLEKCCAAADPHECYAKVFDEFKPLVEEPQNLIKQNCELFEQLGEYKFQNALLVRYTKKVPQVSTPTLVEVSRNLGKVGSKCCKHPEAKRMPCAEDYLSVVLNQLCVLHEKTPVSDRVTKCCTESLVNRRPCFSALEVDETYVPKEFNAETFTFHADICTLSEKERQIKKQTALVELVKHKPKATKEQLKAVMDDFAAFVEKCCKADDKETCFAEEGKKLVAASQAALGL
T3 sequence (P22629 37-163 limits assumed): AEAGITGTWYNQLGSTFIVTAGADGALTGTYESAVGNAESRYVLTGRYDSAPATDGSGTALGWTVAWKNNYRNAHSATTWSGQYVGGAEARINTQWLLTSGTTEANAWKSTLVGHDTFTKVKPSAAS

B1: BD16 (antibody, V domains shown)
VH: EVQLQQSGPELVKPGASVKMSCKASGYTFTDYYMDWVKQSHGESFEWIGRVNPYHGGATYNQKFKGKATLTVDKSSRTAYMELNSLTYEDSAVYYCAREENSYDGYYGMDYWGQGTTVTVSS
VL: DIVLTQSPSSLSVSAGEKVTMDCKSSQSLFNSGNQKNYLAWYHQKPGQPPKLLIYGASTRESGVPDRFTGSGSGTDFTLTISSVQAEDLAVYYCQNDHTYPYTFGGGTKLEIK
notes: Murine hybridoma anti-human CD100 antibody; also called mouse BD16; BD16 mouse MAb
For orientation: Kd means the concentration at which binding is half-saturated. For B1, the affinity in the test with Human CD100 [1], expressed as Kd, was 130 pM. Also, the “IC50 (read off the curve)” value in the test with human CD100-Fc [2] is around 0.03 µg/mL; with human CD100-Fc [3], around 0.02 µg/mL.

B2: MAb 301 (antibody, human IgG1, V domains shown)
VH: B1 VH
VL: B1 VL
notes: Chimeric, human IgG1, human kappa constant domain; also called chimeric BD16; H387/L124
As a reminder, the EC50 (read off the curve) is the concentration needed to bring the measured effect to its halfway point. Low readings indicate an effect from little substance, high ones a need for much substance. For B2, the binding result with streptavidin is “no binding”; with human serum albumin it was “no binding”; in the test with BSA it was “no binding”; with huErb2-Fc [5], “no binding (tested: 500 ng/ml)”. Further, the “EC50 (read off the curve)” value with human CD100-Fc [4] was around 0.02 µg/mL.

B3: MAb 657 (antibody, human IgG1, V domains shown)
VH: QVQLVQSGAEVKKPGSSVKVSCKASGYTFTDYYMDWVRQAPGQGLEWIGRVNPYHGGATYNQKFKGKATITVDKSTSTAYMELSSLRSEDTAVYYCAREENSYDGYYGMDYWGQGTLVTVSS
VL: DIVMTQSPLSLPVSPGEPATINCKSSQSLFNSGNQKNYLAWYLQKPGQPPKLLIYGASTRESGVPDRFSGSGSGTDFTLTISSLQAEDVAVYYCQNDHTYPYTFGQGTKLEIK
notes: Humanized BD16, human IgG1; also called H1235/L284
For the molecule B3, the Kd with Human CD100 [1] turned out to be 120 pM. For the same molecule, the binding result in the test with streptavidin is reported as “no binding”; with human serum albumin it was “no binding”; with BSA, “no binding”; in the test with huErb2-Fc [5], “no binding (tested: 500 ng/ml)”. Moreover, in the test with human CD100-Fc [4], the concentration giving a half-maximal response (EC50 (read off the curve)) is around 0.03 µg/mL.

B4: MAb 1656 (antibody, human IgG1, V domains shown)
VH: B3 VH with I48M, K67R, A68V, V72A
VL: B3 VL
notes: Humanized BD16, fully human frameworks, human IgG1; also called H1651/L284
For B4, binding in the test with Human CD100 [1] was characterised by a dissociation constant (Kd) of 120 pM. The binding result with huErb2-Fc [6], with streptavidin, in the test with human serum albumin and with BSA was “no binding” each time.

B5: MAb 2225 (antibody, V domains shown)
VH: B3 VH with I48M, Y60V, K67R, A68V, V72A
VL: B3 VL
notes: H1651 mutant VH combined with L284; also called H1651 Y60V with L284
In the test with Human CD100 [7], B5 came in with a Kd of 40 pM.

B6: MAb 2206 (antibody, V domains shown)
VH: B3 VH with I48M, G57W, K67R, A68V, V72A
VL: B3 VL
notes: H1651 mutant VH combined with L284; also called H1651 G57W with L284
Regarding B6, in the test with Human CD100 [7], binding was put at a Kd of 90 pM.

B7: MAb 2218 (antibody, V domains shown)
VH: B3 VH with I48M, T59V, K67R, A68V, V72A
VL: B3 VL
notes: H1651 mutant VH combined with L284; also called H1651 T59V with L284
In the case of B7, binding with Human CD100 [7] was characterised by a dissociation constant (Kd) of 80 pM.

B8: MAb 2220 (antibody, V domains shown)
VH: B3 VH with I48M, Y60F, K67R, A68V, V72A
VL: B3 VL
notes: H1651 mutant VH combined with L284; also called H1651 Y60F with L284
With B8, the Kd in the test with Human CD100 [8] amounted to 40 pM.

B9: MAb 2191 (antibody, V domains shown)
VH: B3 VH with K23T, I48M, K67R, A68V, V72A, D104T
VL: B3 VL
notes: Double mutant of H1651 with L284; also called H1651 K23T D104T with L284
Turning to B9, the Kd with Human CD100 [9] is 90 pM.

B10: MAb 1807 (antibody, human IgG4, V domains shown)
VH: B3 VH
VL: B3 VL
notes: Humanized BD16, human IgG4; also called H1235/L284
For the molecule B10, binding with Human CD100 [1] was put at a Kd of 120 pM. The binding result in the test with huErb2-Fc [6], in the test with streptavidin, in the test with human serum albumin and with BSA was “no binding” throughout.

B11: MAb 2219 (antibody, V domains shown)
VH: B3 VH with I48M, T59W, K67R, A68V, V72A
VL: B3 VL
notes: H1651 mutant VH combined with L284; also called H1651 T59W with L284
Take B11: the dissociation constant Kd in the test with Human CD100 [7] was found to be 80 pM.

B12: MAb 2216 (antibody, V domains shown)
VH: B3 VH with I48M, T59F, K67R, A68V, V72A
VL: B3 VL
notes: H1651 mutant VH combined with L284; also called H1651 T59F with L284
For B12, the Kd in the test with Human CD100 [8] came to 60 pM.

B13: MAb 2224 (antibody, V domains shown)
VH: B3 VH with I48M, Y60P, K67R, A68V, V72A
VL: B3 VL
notes: H1651 mutant VH combined with L284; also called H1651 Y60P with L284
Molecule B13 came in with a Kd in the test with Human CD100 [7] of 70 pM.

B14: MAb 2207 (antibody, V domains shown)
VH: B3 VH with I48M, G57Y, K67R, A68V, V72A
VL: B3 VL
notes: H1651 mutant VH combined with L284; also called H1651 G57Y with L284
The molecule B14 showed a Kd in the test with Human CD100 [7] of 60 pM.

B15: MAb 2208 (antibody, V domains shown)
VH: B3 VH with I48M, A58G, K67R, A68V, V72A
VL: B3 VL
notes: H1651 mutant VH combined with L284; also called H1651 A58G with L284
For B15, in the test with Human CD100 [8], the Kd turned out to be 80 pM.
